Data published in article PMC6332120.

Biological target: thioredoxin glutathione reductase (TGR) from Mesocestoides vogae (Mesocestoides vogae (endogenous in tetrathyridium larvae))
Assay: SEC; 25%-50% ammonium sulfate fraction of the larval extract, dialysed against PBS, on HiLoad 16/600 Superdex 200 pg; TR and GR activities traced in the fractions

thioredoxin glutathione reductase (TGR) from Mesocestoides vogae (enzyme)
stoichiometry N: 2
